In patent US20070282095A1 (published 2007):

How the values were obtained:
[1] = biological target: 77E203A205G thrombin (lysine 77 to glutamic acid, glycine 203 to alanine, serine 205 to glycine in B chain) (human, UniProt P00734 315-363; P00734 364-622); assay: IAsys biosensor, FAST FIT program; derivative immobilized
Procedure: (§1) Subsequently, 0.2 ml of 1 M ethanol amine (pH 8) was added thereto to perform a blocking treatment.

[2] = biological target: 203A205G thrombin (glycine at position 203 in B chain substituted by alanine, serine at position 205 … (human, UniProt P00734 315-363; P00734 364-622); assay: as above
Procedure: as §1

Kd [1]: 190 nM | Kd [2]: 10.8 nM
B1: fibrinogen (other)
chain 1: ADSGEGDFLAEGGGVRGPRVVERHQSACKDSDWPFCSDEDWNYKCPSGCRMKGLIDEVNQDFTNRINKLKNSLFEYQKNNKDSHSLTTNIMEILRGDFSSANNRDNTYNRVSEDLRSRIEVLKRKVIEKVQHIQLLQKNVRAQLVDMKRLEVDIDIKIRSCRGSCSRALAREVDLKDYEDQQKQLEQVIAKDLLPSRDRQHLPLIKMKPVPDLVPGNFKSQLQKVPPEWKALTDMPQMRMELERPGGNEITRGGSTSYGTGSETESPRNPSSAGSWNSGSSGPGSTGNRNPGSSGTGGTATWKPGSSGPGSTGSWNSGSSGTGSTGNQNPGSPRPGSTGTWNPGSSERGSAGHWTSESSVSGSTGQWHSESGSFRPDSPGSGNARPNNPDWGTFEEVSGNVSPGTRREYHTEKLVTSKGDKELRTGKEKVTSGSTTTTRRSCSKTVTKTVIGPDGHKEVTKEVVTSEDGSDCPEAMDLGTLSGIGTLDGFRHRHPDEAAFFDTASTGKTFPGFFSPMLGEFVSETESRGSESGIFTNTKESSSHHPGIAEFPSRGKSSSYSKQFTSSTSYNRGDSTFESKSYKMADEAGSEADHEGTHSTKRGHAKSRPV
chain 2: QGVNDNEEGFFSARGHRPLDKKREEAPSLRPAPPPISGGGYRARPAKAAATQKKVERKAPDAGGCLHADPDLGVLCPTGCQLQEALLQQERPIRNSVDELNNNVEAVSQTSSSSFQYMYLLKDLWQKRQKQVKDNENVVNEYSSELEKHQLYIDETVNSNIPTNLRVLRSILENLRSKIQKLESDVSAQMEYCRTPCTVSCNIPVVSGKECEEIIRKGGETSEMYLIQPDSSVKPYRVYCDMNTENGGWTVIQNRQDGSVDFGRKWDPYKQGFGNVATNTDGKNYCGLPGEYWLGNDKISQLTRMGPTELLIEMEDWKGDKVKAHYGGFTVQNEANKYQISVNKYRGTAGNALMDGASQLMGENRTMTIHNGMFFSTYDRDNDGWLTSDPRKQCSKEDGGGWWYNRCHAANPNGRYYWGGQYTWDMAKHGTDDGVVWMNWKGSWYSMRKMSMKIRPFFPQQ
chain 3: YVATRDNCCILDERFGSYCPTTCGIADFLSTYQTKVDKDLQSLEDILHQVENKTSEVKQLIKAIQLTYNPDESSKPNMIDAATLKSRKMLEEIMKYEASILTHDSSIRYLQEIYNSNNQKIVNLKEKVAQLEAQCQEPCKDTVQIHDITGKDCQDIANKGAKQSGLYFIKPLKANQQFLVYCEIDGSGNGWTVFQKRLDGSVDFKKNWIQYKEGFGHLSPTGTTEFWLGNEKIHLISTQSAIPYALRVELEDWNGRTSTADYAMFKVGPEADKYRLTYAYFAGGDAGDAFDGFDFGDDPSDKFFTSHNGMQFSTWDNDNDKFEGNCAEQDGSGWWMNKCHAGHLNGVYYQGGTYSKASTPNGYDNGIIWATWKTRWYSMKKTTMKIIPFNRLTIGEGQQHHLGGAKQAGDV
notes: also called Fbgn
